Measurements reported in US20230220081A1 (published 2023).

Biological target: 21480B
Assay: Octet

Kd: 8.1 nM
B1: IL2Rbeta (receptor)
chain: AVNGTSQFTCFYNSRANISCVWSQDGALQDTSCQVHAWPDRRRWNQTCELLPVSQASWACNLILGAPDSQKLTTVDIVTLRVLCREGVRWRVMAIQDFKPFENLRLMAPISLQVVHVETHRCNISWEISQASHYFERHLEFEARTLSPGHTWEEAPLLTLKQKQEWICLETLTPDTQYEFQVRVKPLQGEFTTWSPWSQPLAFRTKPAALGKD
